Measurements from US20260167721A1.

How the values were obtained:
[1] = target: Jurkat TCRb knockout cells; assay: flow cytometry, Jurkat KO (TCRb knockout) cells, negative control, 1 ug/mL
[2] = target: Jurkat TCRb knockout cells; assay: flow cytometry, Jurkat KO (TCRb knockout) cells, negative control, 10 ug/mL
[3] = target: Jurkat TCRb knockout cells; assay: flow cytometry on Jurkat KO (TCRb knockout) cells, negative control, antibody at 1 ug/ml
[4] = target: Jurkat TCRb knockout cells; assay: flow cytometry on Jurkat KO (TCRb knockout) cells, negative control, antibody at 10 ug/ml

- gMFI [1]: 1860 gMFI
- gMFI [2]: 1830 gMFI
- flow cytometry signal [3]: 3000
- flow cytometry signal [4]: 2820
B1: Gemtuzumab (antibody, V domains shown)
VH: EVQLVQSGAEVKKPGSSVKVSCKASGYTITDSNIHWVRQAPGQSLEWIGYIYPYNGGTDYNQKFKNRATLTVDNPTNTAYMELSSLRSEDTAFYYCVNGNPWLAYWGQGTLVTVSS
VL: DIQLTQSPSTLSASVGDRVTITCRASESLDNYGIRFLTWFQQKPGKAPKLLMYAASNQGSGVPSRFSGSGSGTEFTLTISSLQPDDFATYYCQQTKEVPWSFGQGTKVEVKR
